Numbering of substitutions follows the chain as printed. Names may count otherwise. One block for each binder: values may come before it.
Legend:
[1] = target: Human CD3eg linker (human); test: SPR; fold vs parent H183/L072
Human CD137 ECD (human) = test: single mutant vs template dBBDu183H
Chain of Human CD137 ECD (human) (chain, as listed by the source limits assumed): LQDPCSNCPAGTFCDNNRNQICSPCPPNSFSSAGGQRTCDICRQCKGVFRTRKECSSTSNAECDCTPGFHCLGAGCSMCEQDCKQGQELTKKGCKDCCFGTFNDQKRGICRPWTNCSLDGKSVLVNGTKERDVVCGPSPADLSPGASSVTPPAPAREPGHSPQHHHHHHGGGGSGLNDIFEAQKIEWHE

Chain of Human CD3eg linker (human) (chain, as listed by the source limits assumed): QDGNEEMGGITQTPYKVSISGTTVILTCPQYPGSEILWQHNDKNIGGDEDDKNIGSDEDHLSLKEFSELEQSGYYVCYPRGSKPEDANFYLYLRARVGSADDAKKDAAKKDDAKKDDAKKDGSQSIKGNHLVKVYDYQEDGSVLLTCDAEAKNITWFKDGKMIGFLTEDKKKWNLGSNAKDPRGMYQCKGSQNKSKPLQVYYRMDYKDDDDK

B3: H183/L072 VH G100hP (antibody, name in Kabat numbering, V domains shown)
VH: QVQLVESGGGLVQPGRSLRLSCAASGFTFSNAWMHWVRQAPGKGLEWVAQIKDKGNAYAAYYAPSVKGRFTISRDDSKNSIYLQMNSLKTEDTAVYYCHYVHYASASTVLPAFPVDAWGQGTTVTVSS
VL: DIVMTQSPLSLPVTPGEPASISCQASQELVHMNRNTYLHWYQQKPGQAPRLLIYKVSNRFPGVPDRFSGSGSGTDFTLKISRVEAEDVGVYYCAQGTSVPFTFGQGTKLEIK
- fold change of affinity (Human CD137 ECD (human)): 0 fold

B4: H183/L072 VH H35W (antibody, name in Kabat numbering, V domains shown)
VH: B3 VH with H35W, P114G
VL: B3 VL
- fold change of affinity (Human CD137 ECD (human)): 0 fold

B5: H183/L072 VH V100cP (antibody, name in Kabat numbering, V domains shown)
VH: B3 VH with V109P, P114G
VL: B3 VL
- fold change of affinity (Human CD137 ECD (human)): 0 fold

B6: H183/L072 VH N31K (antibody, name in Kabat numbering, V domains shown)
VH: B3 VH with N31K, P114G
VL: B3 VL
- fold change of affinity (Human CD137 ECD (human)): 0 fold

B11: H183/L072 VH D101P (antibody, name in Kabat numbering, V domains shown)
VH: B3 VH with P114G, D116P
VL: B3 VL
- fold change of affinity (Human CD137 ECD (human)): 0 fold

B13: H183/L072 VH A102P (antibody, name in Kabat numbering, V domains shown)
VH: B3 VH with P114G, A117P
VL: B3 VL
- fold change of affinity (Human CD137 ECD (human)): 0 fold

B15: H183/L072 VH W33F (antibody, name in Kabat numbering, V domains shown)
VH: B3 VH with W33F, P114G
VL: B3 VL
- fold change of affinity (Human CD137 ECD (human)): 0 fold

B17: H183/L072 VH N53K (antibody, name in Kabat numbering, V domains shown)
VH: B3 VH with N56K, P114G
VL: B3 VL
- fold change of affinity (Human CD137 ECD (human)): 0 fold

B18: H183/L072 VH F29K (antibody, name in Kabat numbering, V domains shown)
VH: B3 VH with F29K, P114G
VL: B3 VL
- fold change of affinity (Human CD137 ECD (human)): 0 fold

B19: H183/L072 VH Y55W (antibody, name in Kabat numbering, V domains shown)
VH: B3 VH with Y58W, P114G
VL: B3 VL
- fold change of affinity (Human CD137 ECD (human)): 0 fold

B20: H183/L072 VH M34R (antibody, name in Kabat numbering, V domains shown)
VH: B3 VH with M34R, P114G
VL: B3 VL
- fold change of affinity (Human CD137 ECD (human)): 0 fold

B21: H183/L072 VH N53F (antibody, name in Kabat numbering, V domains shown)
VH: B3 VH with N56F, P114G
VL: B3 VL
- fold change of affinity (Human CD137 ECD (human)): 0 fold

B22: H183/L072 VH T100bP (antibody, name in Kabat numbering, V domains shown)
VH: B3 VH with T108P, P114G
VL: B3 VL
- fold change of affinity (Human CD137 ECD (human)): 0 fold

B23: H183/L072 VL L33I (antibody, name in Kabat numbering, V domains shown)
VH: B3 VH with P114G
VL: B3 VL with L38I
- fold change of affinity [1]: 0 fold

B24: H183/L072 VH N31R (antibody, name in Kabat numbering, V domains shown)
VH: B3 VH with N31R, P114G
VL: B3 VL
- fold change of affinity (Human CD137 ECD (human)): 0 fold

B25: H183/L072 VH M34W (antibody, name in Kabat numbering, V domains shown)
VH: B3 VH with M34W, P114G
VL: B3 VL
- fold change of affinity (Human CD137 ECD (human)): 0 fold

B26: H183/L072 VH F100gP (antibody, name in Kabat numbering, V domains shown)
VH: B3 VH with F113P, P114G
VL: B3 VL
- fold change of affinity (Human CD137 ECD (human)): 0 fold

B27: H183/L072 VH I51R (antibody, name in Kabat numbering, V domains shown)
VH: B3 VH with I51R, P114G
VL: B3 VL
- fold change of affinity (Human CD137 ECD (human)): 0 fold

B28: H183/L072 VL N28I (antibody, name in Kabat numbering, V domains shown)
VH: B3 VH with P114G
VL: B3 VL with N33I
- fold change of affinity [1]: 0 fold

B33: H183/L072 VH S99P (antibody, name in Kabat numbering, V domains shown)
VH: B3 VH with S105P, P114G
VL: B3 VL
- fold change of affinity (Human CD137 ECD (human)): 0 fold

B34: H183/L072 VH F29R (antibody, name in Kabat numbering, V domains shown)
VH: B3 VH with F29R, P114G
VL: B3 VL
- fold change of affinity (Human CD137 ECD (human)): 0 fold

B36: H183/L072 VH A56F (antibody, name in Kabat numbering, V domains shown)
VH: B3 VH with A59F, P114G
VL: B3 VL
- fold change of affinity (Human CD137 ECD (human)): 0 fold

B37: H183/L072 VH W33R (antibody, name in Kabat numbering, V domains shown)
VH: B3 VH with W33R, P114G
VL: B3 VL
- fold change of affinity (Human CD137 ECD (human)): 0 fold

B39: H183/L072 VH I51F (antibody, name in Kabat numbering, V domains shown)
VH: B3 VH with I51F, P114G
VL: B3 VL
- fold change of affinity (Human CD137 ECD (human)): 0 fold

B43: H183/L072 VH Q50R (antibody, name in Kabat numbering, V domains shown)
VH: B3 VH with Q50R, P114G
VL: B3 VL
- fold change of affinity (Human CD137 ECD (human)): 0 fold

B44: H183/L072 VL H27dI (antibody, name in Kabat numbering, V domains shown)
VH: B3 VH with P114G
VL: B3 VL with H31I
- fold change of affinity [1]: 0 fold

B45: H183/L072 VH W33K (antibody, name in Kabat numbering, V domains shown)
VH: B3 VH with W33K, P114G
VL: B3 VL
- fold change of affinity (Human CD137 ECD (human)): 0 fold

B46: H183/L072 VH A57W (antibody, name in Kabat numbering, V domains shown)
VH: B3 VH with A60W, P114G
VL: B3 VL
- fold change of affinity (Human CD137 ECD (human)): 0 fold

B47: H183/L072 VH H35K (antibody, name in Kabat numbering, V domains shown)
VH: B3 VH with H35K, P114G
VL: B3 VL
- fold change of affinity (Human CD137 ECD (human)): 0 fold

Continued, values first:

- fold change of affinity [1]: 0 fold
B1: H183/L072 VL H27dA (antibody, name in Kabat numbering, V domains shown)
VH: B3 VH with P114G
VL: B3 VL with H31A

- fold change of affinity (Human CD137 ECD (human)): 0 fold
B2: H183/L072 VH N53R (antibody, name in Kabat numbering, V domains shown)
VH: B3 VH with N56R, P114G
VL: B3 VL

- fold change of affinity (Human CD137 ECD (human)): 0 fold
B7: H183/L072 VH D52aR (antibody, name in Kabat numbering, V domains shown)
VH: B3 VH with D53R, P114G
VL: B3 VL

- fold change of affinity (Human CD137 ECD (human)): 0 fold
B8: H183/L072 VH D52aW (antibody, name in Kabat numbering, V domains shown)
VH: B3 VH with D53W, P114G
VL: B3 VL

- fold change of affinity (Human CD137 ECD (human)): 0 fold
B9: H183/L072 VH D52aK (antibody, name in Kabat numbering, V domains shown)
VH: B3 VH with D53K, P114G
VL: B3 VL

- fold change of affinity (Human CD137 ECD (human)): 0 fold
B10: H183/L072 VH K52F (antibody, name in Kabat numbering, V domains shown)
VH: B3 VH with K52F, P114G
VL: B3 VL

- fold change of affinity (Human CD137 ECD (human)): 0 fold
B12: H183/L072 VH I51W (antibody, name in Kabat numbering, V domains shown)
VH: B3 VH with I51W, P114G
VL: B3 VL

- fold change of affinity (Human CD137 ECD (human)): 0 fold
B14: H183/L072 VH H35R (antibody, name in Kabat numbering, V domains shown)
VH: B3 VH with H35R, P114G
VL: B3 VL

- fold change of affinity (Human CD137 ECD (human)): 0 fold
B16: H183/L072 VH L100dP (antibody, name in Kabat numbering, V domains shown)
VH: B3 VH with L110P, P114G
VL: B3 VL

- fold change of affinity (Human CD137 ECD (human)): 0 fold
B29: H183/L072 VH D52aF (antibody, name in Kabat numbering, V domains shown)
VH: B3 VH with D53F, P114G
VL: B3 VL

- fold change of affinity (Human CD137 ECD (human)): 0 fold
B30: H183/L072 VH V100iP (antibody, name in Kabat numbering, V domains shown)
VH: B3 VH with P114G, V115P
VL: B3 VL

- fold change of affinity (Human CD137 ECD (human)): 0 fold
B31: H183/L072 VH S100aP (antibody, name in Kabat numbering, V domains shown)
VH: B3 VH with S107P, P114G
VL: B3 VL

- fold change of affinity (Human CD137 ECD (human)): 0 fold
B32: H183/L072 VH M34K (antibody, name in Kabat numbering, V domains shown)
VH: B3 VH with M34K, P114G
VL: B3 VL

- fold change of affinity (Human CD137 ECD (human)): 0 fold
B35: H183/L072 VH Y55R (antibody, name in Kabat numbering, V domains shown)
VH: B3 VH with Y58R, P114G
VL: B3 VL

- fold change of affinity (Human CD137 ECD (human)): 0 fold
B38: H183/L072 VH N53W (antibody, name in Kabat numbering, V domains shown)
VH: B3 VH with N56W, P114G
VL: B3 VL

- fold change of affinity (Human CD137 ECD (human)): 0 fold
B40: H183/L072 VH A32W (antibody, name in Kabat numbering, V domains shown)
VH: B3 VH with A32W, P114G
VL: B3 VL

- fold change of affinity [1]: 0 fold
B41: H183/L072 VL Y32I (antibody, name in Kabat numbering, V domains shown)
VH: B3 VH with P114G
VL: B3 VL with Y37I

- fold change of affinity (Human CD137 ECD (human)): 0 fold
B42: H183/L072 VH K52W (antibody, name in Kabat numbering, V domains shown)
VH: B3 VH with K52W, P114G
VL: B3 VL

From US20210388087A1
